Laboratory results reported in the DeepSol protein solubility set.

Assay: soluble on expression in E. coli; label from the status in PepcDB or PDB records

Sequence | soluble on expression in E. coli
EDGYDMWLRYQPIADQTLLKTYQKQIRHLHVAGDSPTINAAAAELQRGLSGLLNKPIVARDEKLKDYSLVIGTPDNSPLIASLNLGERLQALGAEGYLLEQTRINKRHVVIVAANSDVGVLYGSFHLLRLIQTQHALEKLSLSSAPRLQHRVVNHWDNLNRVVERGYAGLSLWDWGSLPNYLAPRYTDYARINASLGINGTVINNVNADPRVLSDQFLQKIAALADAFRPYGIKMYLSINFNSPRAFGDVDTADPLDPRVQQWWKTRAQKIYSYIPDFGGFLVKADSEGQPGPQGYGRDHAEGANMLAAALKPFGGVVFWRAFVYHPDIEDRFRGAYDEFMPLDGKFADNVILQIKNGPIDFQPREPFSALFAGMSRTNMMMEFQITQEYFGFATHLAYQGPLFEESLKTETHARGEGSTIGNILEGKVFKTRHTGMAGVINPGTDRNWTGHPFVQSSWYAFGRMAWDHQISAATAADEWLRMTFSNQPAFIEPVKQMMLVSREAGVNYRSPLGLTHLYSQGDHYGPAPWTDDLPRADWTAVYYHRASKTGIGFNRTKTGSNALAQYPEPIAKAWGDLNSVPEDLILWFHHLSWDHRMQSGRNLWQELVHKYYQGVEQVRAMQRTWDQQEAYVDAARFAQVKALLQVQEREAVRWRNSCVLYFQSVAGRPIPANYEQPEHDLEYYKMLARTTYVPEPWHPASSSRVLK | soluble
EDLGYFCVDNLPPSLLPKFLELMKESNSKMSKVALVMDLRGREFFDRLIEALDEMAENPWITPRILFLDAKDSILVTRYKETRRSHPLAATGLPLEGIALERELLEELKGRSQIIYDTSDMKPRDLREKIVKHFATNQGETFTVNVMSFGFKYGIPIDADLVFDVRFLPNPYYIESMRPLTGKDKEVSSYVMKWNETQKFNEKLIDLLSFMLPSYKREGKSQVVIAIGCTGGQHRSVTLAENLADYFKKDYYTHVTHRDIEKR | not soluble
EELEYKGMNTLQISNVDDLISFYQYADDRIPLISGHRGGRGKGYPENSMETFENTLSYTPATFEIDPRLTKDSVIVLFHDDTLERTSNGTGKVSDYTWEELQNFRLKDPEGNITNYRIPTLEEAIRWARGKTILILDKKDVPMERTAQLITDMQAEPYVMITVHDGASARFFYEKNPNFMFEAFVKTKEAVQDYEDNGIPWSHIMAYVGPKITPEVREVIDMLHERGVMCMISTAPSDDKLSTPESRAEAYRMIIRQGVDIIESDRPIEVAEAISSLIPVSSSKGKFFSTL | soluble
EEQPRLFELLGQPGYKATWHAMFKGESDVPKWVSDASGPSSPSTSLSLEGQPYVLANSCKPHDCGNNRLLVAFRGDKSAAYGLQVSLPDEPAEVMQTPSKYATYRWYGEPSRQVRELLMKQLESDPNWKLEHHHHHH | soluble
EERRVAYPVLRELTERTGETSALMVWNGNESMCVEQIPSRHQVKHLAPLGARYNEALSSSVQVFLASENEDRVRQLLRSGSITLTGVDEDAVEAYLLRLKESMERGWAVNFGETSIEEVGVASPVYDHRGNMVASVLIPAPKFRVSQDTLNSLGEACAAAAAKVTTRLGGRAPH | soluble
EFELKDFHVDYSISHPQSQHIQIIVCFKAQDKHEANAGRYRRIKPAWCTTEDGEHVIYYRISASRVDHDITTKYAFLDRDGKPKQIHHSEKLAVELMTLHPVIRLRDSRRFPRPSHINGDSKNARIEKRINNTCRRLLAMPGHVNKGEIRSSLDAMKTLVEHYFAFRSIGKGNPRKPRDGLFYTSPSSDKGLSQYLKETNDKQSRLLLMGLLSAYLQAKGPTDLRRCARPILIIEDPEGRLHPTHLARAWSLLQLLPMQK | not soluble
EFIHGVYVDTSLHRNFVNLQQASLMAEGGVTGGISLLRNLRTSGNDQGLQQLLADPVQFEDEKGRVSITIEEEDGKLNLNAVTLPNGDEHVFYGPAERRLLTALKLPTALHDSLADWLDANDEPRPDGGESAYYQSLSAPYAPRNAPFATFGELGLVRGVEPAVLERLRPFATVFVDGGAINVNTAPLQVLMALDEGISEGIARDIMQRRRIKPFKSVGELSEIPGMETIAGKLSGFAGARGSTYRLVSRAAVGDVTRLVEAVVNLDGTQPRYLY | not soluble
EGDIHMSLSHPPIPILELADHIERLKANDNLKFSQEYESIDPGQQFTWEHSNLEVNKPKNRYANVIAYDHSRVLLSAIEGIPGSDYVNANYIDGYRKQNAYIATQGSLPETFGDFWRMIWEQRSATVVMMTKLEERSRVKCDQYWPSRGTETHGLVQVTLLDTVELATYCVRTFALYKNGSSEKREVRQFQFTAWPDHGVPEHPTPFLAFLRRVKTCNPPDAGPMVVHCSAGVGRTGCFIVIDAMLERIKHEKTVDIYGHVTLMRAQRNYMVQTEDQYIFIHDALLEAVTCGNTEVPARNLYAYIQKLTQIETGENVTGMELEFKRLASSKAHTSRFISANLPCNKFKNRLVNIMPYESTRVCLQPIRGVEGSDYINASFLDGYRQQKAYIATQGPLAETTEDFWRMLWEHNSTIVVMLTKLREMGREKCHQYWPAERSARYQYFVVDPMAEYNMPQYILREFKVTDARDGQSRTVRQFQFTDWPEQGVPKSGEGFIDFIGQVHKTKEQFGQDGPISVHCSAGVGRTGVFITLSIVLERMRYEGVVDIFQTVKMLRTQRPAMVQTEDQYQFCYRAALEYLGSFDHYATEGHHHHHH | not soluble
EHAPATTGPLPSAPRDVVASLVSTRFIKLTWRTPASDPHGDNLTYSVFYTKEGIARERVENTSHPGEMQVTIQNLMPATVYIFRVMAQNKHGSGESSAPLRVETQPE | soluble
EHIKQKNSEIAELTLQNQRDADSVEYYKALVSQDEKQKVLIHDIKKHLNAIASLNEQHDSEKIAAYLTHVLGSSELKHSVRVCDNDLLNALLCRYQKICLTKKIALHIDIRSKCIDFVTYDDLSVLFGNLMDNAVESAEKTVNPFIELNVFHKENNNMTIITLIDSCRVNPIDKNGNLLPTKKPNPQFHGFGMRSIENIVKKYNGEMTFYFDDPTKTFHTIIMLRH | not soluble
EILAKDQEAFMQSAKFLKEGKILAIKGIGGFHLMCDAFNEEALKTLRLRKNRPKKPFALMCKDLQSAKELAFIDEKEEALLGGVLAPIVILKAKKAFSLIAPDVDKIGIMLAYTPLHLLLFEYFKGSLVATSANLSGESIIKDEFNLCKKLDKVFDFYLDYDREIINASDDSIAQVVNGETMFLRTSR | not soluble
EIQLQQSGPELVKPGASVKVSCKASGYSFTDYFIYWVKQSHGKSLEWIGDIDPYNGDTSYNQKFRDKATLTVDQSSTTAFMHLNSLTSEDSAVYFCARGLRFWGQGTLVTVSAAKTTPPSVYPLAPGSAAQTNSMVTLGCLVKGYFPEPVTVTWNSGSLSSGVHTFPAVLQSDLYTLSSSVTVPSSTWPSETVTCNVAHPASSTKVDKKIVPRDCG | soluble
EIQMTQTTSSLSASLGDRVTISCRASQDISNFLNWYQQKPDGTVKLLIYYTSTLHSGVPSRFSGSGSGTDYSLTISNLEQEDIATYFCQQGKTLPPTFGGGTKLEIKRADAAPTVSIFPPSSEQLTSGGASVVCFLNNFYPKEINVKWKIDGSERQNGVLDSWTEQDSKDSTYSMSSTLTLTKDEYERHNSYTCEATHKTSTSPIVKSFNRNEC | soluble
EIRVFETAPEGLKILKDSEVVINTTTKEVAKNNQFSVSDASGTYNMVNDVKVG | soluble
EITPLIFQKQTTEEVQNLKPYTALQLEGRDIYIREGCNVCHSQMVRPFRSETERYGHYSVAGESVWEHPFLWGSKRTGPDLARVGGRYSDEWHRVHLLNPRELVPESNMPAFPWLAKNTLDGKYTQQKMTLFRDKFGVPYTDEQIANATKDVEGKTEMDAIIAYLQSLGHAMK | not soluble
EKELLDNFKKNITQYAKQLEISIEKVYDEKGSVNAQKDIQNLLSEYANRQEIGEIRFIDKDQIIIATTKQSNRSLINQKANDSSVQKALSLGQSNDHLILKDYGGGKDRVWVYNIPVKVDKKVIGNIYIESKINDVYNQLNNINQ | not soluble
ELASDVYNKRIWIKDMQADKGKVQLMKGLYWYFDKDPHLLLGGGTGGGKTFTILSLIYALCRVGEMEICDPKNSDLMALGKLPMFAGKVHTGKTDIVNCLKNAVELMNARFEMMNNSPDYKMGKNYAYYGLKPKFIVIDEFAAFKAELANDYSTDGEVDEYLTQLILKARQCGIFLIVAMQRPDG | not soluble
ELQVLDTWQGDVVRDTKTLSGGESFLVSLALALALSDLVSHKTSIDSLFLDEGFGTLDSETLDMALDALDNLNASGKMIGVISHIEAMKERIPVQIKVTKRSGLGVSELEKQYKKVS | not soluble
ELYGASPDIDLGTGPTPTLGPVTPEICKQDIVFDGIAQIRGEIFFFKDRFIWRTVTPRDKPMGPLLVATFWPELPEKIDAVYEAPQEEKAVFFAGNEYWIYSASTLERGYPKPLTSLGLPPDVQRVDAAFNWSKNKKTYIFAGDKFWRYNEVKKKMDPGFPKLIADAWNAIPDNLDAVVDLQGGGHSYFFKGAYYLKLENQSLKSVKFGSIKSDWLGC | soluble
EMDRRAALSGAAGAFMAACDEAVRELLLAMNFSDHDAEAIITGAAPPQLEHAASGVVSLVLRLKSSVLSHYIKHLNNAAARSQAAAASTAAVDGNAEDAADKHGAKATSAAKAPPAAGGGAGDAADQQLSTGEACLVQLQLYGGVGDALLQLLRSKLRGSACQLWALAHIVHPHPSRSEKESLAAYTGKSTKQVTDWFTNWRARHWRPAIMALQKGAAGGAAGGSLG | soluble
EMGTADLGPSSVPTPTNVTIESYNMNPIVYWEYQIMPQVPVFTVEVKNYGVKNSEWIDACINISHHYCNISDHVGDPSNSLWVRVKARVGQKESAYAKSEEFAVCRDGKIGPPKLDIRKEEKQIMIDIFHPSVFVNGDEQEVDYDPETTCYIRVYNVYVRMNGSEIQYKILTQKEDDCDEIQCQLAIPVSSLNSQYCVSAEGVLHVWGVTTEKSKEVCITIFNSSIKGSLWIPVVAALLLFLVLS | soluble
EMTDLQSTHKNFLFEIEEVGIKNLTYPVLIDQYQTAGLFSFSTSLNKNEKGINMSRILESVEKHYDNGIELEFNTLHQLLRTLQDKMNQNAAGVDVSGKWFFDRYSPVTNIKAVGHADVTYGLAIENHTVTRKELTIQAKVTTLCPCSKEISEYSAHNQRGIVTVKAYLDKNNDVIDDYKDKILDAMEANASSILYPILKRPDEKRVTERAYENPRFVEDLIRLIAADLVEFDWIEGFDIECRNEESIHQHDAFARLKYRK | not soluble
EMYHHKKVLVLGLARSGVSAATIMHKLGAFVTVNDQKPFSENPEAQGLLEQGIKVICGSHPIELLDEGFELVIKNPGIPYNNPMIEKALKLKIPVI | not soluble
EPEEEQITVLENGSWLIDGDTPVNKLKYVLSVDSFPGEEQGYYLTIAGLIMYILQRIPKTGDHMEFNGLRYEVVDMDGIRIDKVMVTKVP | soluble
EPIVTVYVAYGGLDLIAEEFEKDTGIKMEYVSLSSGEALSRLKAEQSNPSADVWLGGGIDAFISAQNDGLLEAYKSPNAEEIDPLFVEENGYWIGVSLVTIGILENTDLMTEKGLPEPETWDDLITEDYSGELIASNPTVSGTAYFTICGILQMNGEEEGWNYLDKFYQNTPFLTKRGSGPGNLVTAGEYAYGVAPDPHTTLIANSELPVKSVFLDNVIWWPSPVSIVNGAKHPENAKIFVDWCLSKEGQEVLMQASPRVPVRGDI | not soluble
